Reference: patent publication US20180273595A1 (REGENTS OF THE UNIVERSITY OF MICHIGAN, published 2018)
*1 amine or outer side, *2 acyl side, *3 side chain or, on linkers, in order; H or OH if unused. Primed or numbered codes have the meaning given here. Where no end group is shown, it is not given here. [ ]: non-standard residue; d: D form. Y(Me) = COc1ccc(C[C@H](N[*:1])C(=O)[*:2])cc1; Pip′ = 4-methylpiperazine

T1: recombinant His-tagged full-length ERG (UniProt P11308 1-479, biotinylated with NHS-PEG4 biotin for the OctetRED assays)
T1 construct: mature; Baculovirus expression in SF9 cells, Ni-NTA purified; also called wild-type ERG; wtERG; not shown: His tag
T1 sequence (looked up): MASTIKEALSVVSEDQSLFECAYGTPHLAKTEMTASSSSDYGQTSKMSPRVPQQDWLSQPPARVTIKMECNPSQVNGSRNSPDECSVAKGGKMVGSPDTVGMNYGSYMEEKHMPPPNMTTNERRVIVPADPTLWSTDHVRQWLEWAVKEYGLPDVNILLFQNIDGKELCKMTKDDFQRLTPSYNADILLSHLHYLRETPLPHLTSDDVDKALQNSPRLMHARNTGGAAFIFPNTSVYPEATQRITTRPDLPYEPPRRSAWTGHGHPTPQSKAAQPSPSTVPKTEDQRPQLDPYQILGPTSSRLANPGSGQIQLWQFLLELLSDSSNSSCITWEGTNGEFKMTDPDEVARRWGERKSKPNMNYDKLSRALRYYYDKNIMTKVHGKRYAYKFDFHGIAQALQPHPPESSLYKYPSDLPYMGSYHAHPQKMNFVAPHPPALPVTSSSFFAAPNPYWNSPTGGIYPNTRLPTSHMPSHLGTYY


target: T1, recombinant His-tagged full-length ERG; test: OctetRED BLI, biotinylated ERG on streptavidin sensors
Experimental: (§1) The interaction coefficients between ERG and synthetic peptides or peptidomimetics were determined by biolayer interferometry technology using the Octet Red system (ForteBio). Purified ERG and GUS proteins were biotinylated by EZLink NHS-PEG4 Biotinylation Kit (Thermo Scientific) following the manufacturer's protocol and any unincorporated biotin was removed from the reactions with Zeba 2 ml desalt columns (Thermo). Biotinylated proteins (500 μg/ml) were then incubated with super streptavidin biosensors in binding buffer (20 mM HEPES pH 7.4, 150 mM NaCl), blocked with 10 μg/ml biocytin and washed three times in binding buffer. Peptides were serially diluted in binding buffer, mixed with the protein-coupled biosensors and peptidomimetic:protein association/dissociation was monitored for 10 min at 25° C. Nonspecific binding from the signal obtained from peptidomimetic:GUS interactions was subtracted from that of peptidomimetic:ERG interactions and baseline signal drift was controlled by monitoring immobilized ERG without peptide. Octet Red analysis software was used to analyze the data.

Kd [µM]	Binder
7.9	LRFGTLP [synthetic peptide LRFGTLP]
1.8	LSFGSLP [EIP2 synthetic peptide LSFGSLP]
2.9	LTFGSLP [synthetic peptide LTFGSLP]
12.5	LSFGSFP [synthetic peptide LSFGSFP]
9.2	LSFGTFP [synthetic peptide LSFGTFP]
6.4	LAFGSLP [synthetic peptide LAFGSLP]
2.1	FSFGSLP [synthetic peptide FSFGSLP]
3.9	FTFGSLP [synthetic peptide FTFGSLP]
21.1	FSASSPA [synthetic peptide FSASSPA]
4.6	MTFGTLP [synthetic peptide MTFGTLP]
3.2	YTFGTLP [synthetic peptide YTFGTLP]

target: T1, recombinant His-tagged full-length ERG; test: OctetRED; Kd table of synthetic peptides on ERG
Experimental: as §1

Kd [µM]	Binder
10.2	H-PPYLF-NH2 (also called H2N-PPYLF-NH2) [5PF-N]
1.31	H-PYLFT-NH2 [5PT-N (NH2-PYLFT-NH2)]
9.44	Ac-PPYLF-NH2 (also called Ac-PPYLF-NH2) [5PF-A]
12.4	Ac-LPPYL-NH2 (also called Ac-LPPYL-NH2) [5LL-A]
4.88	H-LPPYLF-NH2 (also called H2N-LPPYLF-NH2) [6LF-N]
3.64	Ac-PPYLFT-NH2 (also called Ac-PPYLFT-NH2) [6PT-A]
5.15	Ac-PYLFT-NH2 (also called Ac-PYLFT-NH2) [5PT-A]
9.6	H-LPPYL-NH2 (also called H2N-LPPYL-NH2) [5LL-N]
> 100	Ac-LPPYLF-NH2 (also called Ac-LPPYLF-NH2) [6LF-A]
11.5	H-PPYLFT-NH2 (also called H2N-PPYLFT-NH2) [6PT-N]

target: T1, recombinant His-tagged full-length ERG; test: Kd table of synthetic peptides on ERG; assay not given

Kd [µM]	binding result	Binder
3.9		[Pip′]PPFL-NH2 (also called Pip-PPFL-NH2) [4PL-3F]
14.8		[Pip′]PPYD-NH2 (also called Pip-PPYD-NH2) [4PL-4D]
	no binding	[Pip′]PPYF-NH2 (also called Pip-PPYF-NH2) [4PL-4F]
7.9		[Pip′]PPYA-NH2 (also called Pip-PPYA-NH2) [4PL-4A]
15.5		[Pip′]PP[Y(Me)]L-NH2 (also called Pip-PPY(Me)L-NH2) [4PL-3Y(Me)]

target: T1, recombinant His-tagged full-length ERG; test: as above; remark: another data set of the same source

Kd [µM]	Binder
> 100	Ac-LPPDLFT-NH2 (also called Ac-LPPDLFT-NH2) [7LT-4D]
> 100	Ac-LPPWLFT-NH2 (also called Ac-LPPWLFT-NH2) [7LT-4W]
> 100	Ac-LPPFLFT-NH2 (also called Ac-LPPFLFT-NH2) [7LT-4F]
> 100	Ac-LPPHLFT-NH2 (also called Ac-LPPHLFT-NH2) [7LT-4H]
